Data published in US20200283521A1 (GRANULAR THERAPEUTICS, published 2020).

Tests used:
Assay in all cases: cell array, transfected fixed HEK293 cells
[1] = target: T1, EGFR (human, UniProt P00533)
T1 construct: expressed in transfected HEK293 cells
Protocol: (§1) Transfection of all plasmids was confirmed by screening for the co-encoded marker ZS green (FIG. 13A).
(§2) Primary hits (duplicate spots) were identified by analysing fluorescence (AF647 and ZsGreenl) on ImageQuant. Vectors encoding all hits were sequenced to confirm their correct identities. […] Slides were analysed as above.

[2] = target: T2, MSN (human, UniProt P26038)
T2 construct: expressed in transfected HEK293 cells
Protocol: as §1, §2

[3] = target: T3, DES (human, UniProt P17661)
T3 construct: expressed in transfected HEK293 cells
Protocol: as §1, §2

[4] = target: T4, KRT19 (human, UniProt P08727)
T4 construct: expressed in transfected HEK293 cells
T4 sequence (looked up): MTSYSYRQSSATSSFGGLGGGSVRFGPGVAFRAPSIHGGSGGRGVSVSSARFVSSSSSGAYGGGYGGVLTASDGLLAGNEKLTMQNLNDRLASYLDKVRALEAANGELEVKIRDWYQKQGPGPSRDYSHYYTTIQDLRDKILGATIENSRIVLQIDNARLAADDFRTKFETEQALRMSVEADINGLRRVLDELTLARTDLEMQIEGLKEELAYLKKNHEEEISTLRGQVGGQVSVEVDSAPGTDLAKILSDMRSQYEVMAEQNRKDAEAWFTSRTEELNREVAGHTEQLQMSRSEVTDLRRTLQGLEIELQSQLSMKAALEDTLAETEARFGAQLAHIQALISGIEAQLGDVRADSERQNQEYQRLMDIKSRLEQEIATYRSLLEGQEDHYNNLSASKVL
Protocol: as §1, §2

[5] = target: T5, EDN2 (human, UniProt P20800)
T5 construct: expressed in transfected HEK293 cells
T5 sequence (looked up): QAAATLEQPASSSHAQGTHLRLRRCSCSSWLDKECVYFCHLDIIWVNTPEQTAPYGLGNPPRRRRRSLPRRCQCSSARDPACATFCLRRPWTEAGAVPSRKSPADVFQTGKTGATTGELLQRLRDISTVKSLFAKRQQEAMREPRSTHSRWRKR
Protocol: as §1, §2

[6] = target: T6, EDN1 (human, UniProt P05305)
T6 construct: expressed in transfected HEK293 cells
T6 sequence (looked up): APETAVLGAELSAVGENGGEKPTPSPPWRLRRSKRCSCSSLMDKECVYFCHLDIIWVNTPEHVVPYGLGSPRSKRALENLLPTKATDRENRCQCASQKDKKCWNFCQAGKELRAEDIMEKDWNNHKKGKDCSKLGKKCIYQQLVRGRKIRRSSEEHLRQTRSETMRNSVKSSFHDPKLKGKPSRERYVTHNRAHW
Protocol: as §1, §2

Measured: binding result

T2 sequence (P26038 2-577 limits assumed): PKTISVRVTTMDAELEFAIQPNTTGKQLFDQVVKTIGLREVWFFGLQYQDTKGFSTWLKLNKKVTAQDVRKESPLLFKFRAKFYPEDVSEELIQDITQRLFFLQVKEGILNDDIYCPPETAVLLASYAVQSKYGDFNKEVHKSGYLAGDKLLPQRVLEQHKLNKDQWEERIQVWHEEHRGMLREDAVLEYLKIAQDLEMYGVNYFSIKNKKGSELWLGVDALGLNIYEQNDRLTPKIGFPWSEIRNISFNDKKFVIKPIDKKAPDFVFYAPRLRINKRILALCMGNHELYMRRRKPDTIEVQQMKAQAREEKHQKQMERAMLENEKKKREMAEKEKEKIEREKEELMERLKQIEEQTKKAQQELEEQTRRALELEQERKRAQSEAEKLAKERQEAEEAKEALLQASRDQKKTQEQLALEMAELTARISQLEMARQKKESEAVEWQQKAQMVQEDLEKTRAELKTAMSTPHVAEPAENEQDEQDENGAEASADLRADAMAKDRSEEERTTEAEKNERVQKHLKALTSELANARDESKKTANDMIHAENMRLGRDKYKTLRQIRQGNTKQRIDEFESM
T3 sequence (P17661 2-470 limits assumed): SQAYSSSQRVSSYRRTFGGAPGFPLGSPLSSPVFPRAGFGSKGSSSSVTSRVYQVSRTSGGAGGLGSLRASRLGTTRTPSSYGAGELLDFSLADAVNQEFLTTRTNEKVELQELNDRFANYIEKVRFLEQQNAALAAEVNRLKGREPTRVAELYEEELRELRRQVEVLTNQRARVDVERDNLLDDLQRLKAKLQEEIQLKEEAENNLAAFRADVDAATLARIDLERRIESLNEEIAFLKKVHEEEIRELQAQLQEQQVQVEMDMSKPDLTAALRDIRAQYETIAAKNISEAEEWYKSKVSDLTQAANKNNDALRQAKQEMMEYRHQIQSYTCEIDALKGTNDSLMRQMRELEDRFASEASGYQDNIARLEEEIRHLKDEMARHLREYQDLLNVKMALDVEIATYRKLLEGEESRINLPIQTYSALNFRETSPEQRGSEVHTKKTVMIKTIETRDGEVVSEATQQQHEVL

B1: MH1, human IgG1 (antibody, V domains shown)
VH: QVQLVQSGAEVKKPGASVKVSCKASGYTFTDYYMNWVRQAPGQGLEWMGRIYPGSGNTYYAQKFQGRVTMTRDTSTSTVYMELSSLRSEDTAVYYCARGVYYYDYWGQGTLVTVSS
VL: DIQMTQSPSSLSASVGDRVTITCRASQGIRTNLAWFQQKPGKAPKSLIYAASSLQSGVPSRFSGSGSGTDFTLTISSLQPEDFATYYCQQYNSYPRTFGGGTKVEIK
notes: IgG1; also called IgG1-MH1
no binding (tested: 2 µg/ml): [1] | [2] | [3] | [4] | [5] | [6]
